The source of these data is doi:10.1101/2024.02.27.582368 (bioRxiv, 2024).

The target of series [1] is BC1280 (CapP, CalY-assisting polymerization protein), full-length recombinant protein (Bacillus cereus ATCC14579) (UniProt Q81GC7). The experiment in a line: native gel or EMSA.
The series “native gel or EMSA” deals with the molecule itself. The experiment in a line: native gel or EMSA. Background: In EMSA bound probe runs differently from free probe, usually more slowly.

A word on the stoichiometry N: it is the number of molecules, sites or subunits per partner or assembly.

Turning to “BC1280 (CapP, CalY-assisting polymerization protein), full-length recombinant protein (from UniProt Q81GC7 1-279) (natural protein)”, the stoichiometry N in series [1] came out at 15 subunits.

B1: N-domain39-190 of BC1280 (domain or fragment, Bacillus cereus ATCC14579, UniProt Q81GC7 39-190, looked up)
chain: AAFIHETKVEATLSTAIIFPKTVNTLKEQSEKHKQFIEREYGTMKGKLKATSIEEIKQAISVWQQGREKIVAEKEALQNVYTEIEAPYNQIQEELKVNKDESMQQVSIYVNEGFRSIKEKRDYIEKEISLKAIDEQIQALQQQLNVAIEAEG
B1: the “stoichiometry N” value in “native gel or EMSA” is ~15 subunits.
